Here are results for 2 molecules from PMC10306287, “Computational design of the temperature optimum of an enzyme reaction” (Science Advances, 2023).

One data set has as its target T1, AHA (WT AHA α-amylase) (Pseudoalteromonas haloplanktis, UniProt P29957).
T1 construct: gene amy; mature peptide residues 25-477, signal peptide excluded, codon-optimised in pET-22b(+), E. coli NiCo21(DE3), HisTrap purified (tag not described)
In words: steady-state hydrolysis, 96-well spectrophotometer, nonlinear regression. Format: biochemical. To be noted: 25 °C, PBS, 60 nM enzyme.

Substrate in data set [1]: O=[N+]([O-])c1ccc(O[C@H]2O[C@H](CO)[C@@H](O[C@H]3O[C@H](CO)[C@@H](O[C@H]4O[C@H](CO)[C@@H](O)[C@H](O)[C@H]4O)[C@H](O)[C@H]3O)[C@H](O)[C@H]2O)c(Cl)c1
The description is as above. The note with it: 25 °C, PBS, 60 nM enzyme. Format: biochemical, Pseudoalteromonas haloplanktis.

As for `O=[N+]([O-])c1ccc(O[C@H]2O[C@H](CO)[C@@H](O[C@H]3O[C@H](CO)[C@@H](O[C@H]4O[C@H](CO)[C@@H](O)[C@H](O)[C@H]4O)[C@H](O)[C@H]3O)[C@H](O)[C@H]2O)c(Cl)c1` [2-chloro-4-nitrophenyl-α-D-maltotrioside], the Km (usually the concentration of substrate that gives half-maximal velocity) at AHA (WT AHA α-amylase) was 2240 ± 220 µM.

B1: AHA (WT AHA α-amylase) (Pseudoalteromonas haloplanktis) (protein)
chain: TPTTFVHLFEWNWQDVAQECEQYLGPKGYAAVQVSPPNEHITGSQWWTRYQPVSYELQSRGGNRAQFIDMVNRCSAAGVDIYVDTLINHMAAGSGTGTAGNSFGNKSFPIYSPQDFHESCTINNSDYGNDRYRVQNCELVGLADLDTASNYVQNTIAAYINDLQAIGVKGFRFDASKHVAASDIQSLMAKVNGSPVVFQEVIDQGGEAVGASEYLSTGLVTEFKYSTELGNTFRNGSLAWLSNFGEGWGFMPSSSAVVFVDNHDNQRGHGGAGNVITFEDGRLYDLANVFMLAYPYGYPKVMSSYDFHGDTDAGGPNVPVHNNGNLECFASNWKCEHRWSYIAGGVDFRNNTADNWAVTNWWDNTNNQISFGRGSSGHMAINKEDSTLTATVQTDMASGQYCNVLKGELSADAKSCSGEVITVNSDGTINLNIGAWDAMAIHKNAKLNTSSAS
notes: mature peptide residues 25-477, signal peptide excluded, codon-optimised in pET-22b(+), E. coli NiCo21(DE3), HisTrap purified (tag not described)
Take B1: in data set [1], the Km turned out to be 2810 ± 110 µM; the catalytic constant (kcat) (as a rule, the number of substrate molecules converted per active site and unit of time at saturation) stood at 1.775 ± 0.11 s⁻¹.
